Measurements taken from PMC10903946 (Genes & Development, 2024).

Target: T1, mCherry-LacR-MITF (human, UniProt O75030-9 1-419)
T1 sequence: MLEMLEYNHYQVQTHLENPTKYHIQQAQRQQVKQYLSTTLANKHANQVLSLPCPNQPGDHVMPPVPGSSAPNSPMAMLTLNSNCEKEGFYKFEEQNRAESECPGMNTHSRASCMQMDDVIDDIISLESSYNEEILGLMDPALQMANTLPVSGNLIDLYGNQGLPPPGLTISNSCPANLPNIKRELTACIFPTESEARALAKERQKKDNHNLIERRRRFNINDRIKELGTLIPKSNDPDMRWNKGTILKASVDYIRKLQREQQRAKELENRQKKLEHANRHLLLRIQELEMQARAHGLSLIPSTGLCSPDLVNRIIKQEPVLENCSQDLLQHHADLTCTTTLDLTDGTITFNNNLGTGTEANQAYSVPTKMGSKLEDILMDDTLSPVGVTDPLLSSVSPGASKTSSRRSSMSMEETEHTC
Experiment: LacR/LacO nuclear tethering assay

B1: NBS1-GFP (natural protein)
chain: MWKLLPAAGPAGGEPYRLLTGVEYVVGRKNCAILIENDQSISRNHAVLTANFSVTNLSQTDEIPVLTLKDNSKYGTFVNEEKMQNGFSRTLKSGDGITFGVFGSKFRIEYEPLVACSSCLDVSGKTALNQAILQLGGFTVNNWTEECTHLVMVSVKVTIKTICALICGRPIVKPEYFTEFLKAVESKKQPPQIESFYPPLDEPSIGSKNVDLSGRQERKQIFKGKTFIFLNAKQHKKLSSAVVFGGGEARLITEENEEEHNFFLAPGTCVVDTGITNSQTLIPDCQKKWIQSIMDMLQRQGLRPIPEAEIGLAVIFMTTKNYCDPQGHPSTGLKTTTPGPSLSQGVSVDEKLMPSAPVNTTTYVADTESEQADTWDLSERPKEIKVSKMEQKFRMLSQDAPTVKESCKTSSNNNSMVSNTLAKMRIPNYQLSPTKLPSINKSKDRASQQQQTNSIRNYFQPSTKKRERDEENQEMSSCKSARIETSCSLLEQTQPATPSLWKNKEQHLSENEPVDTNSDNNLFTDTDLKSIVKNSASKSHAAEKLRSNKKREMDDVAIEDEVLEQLFKDTKPELEIDVKVQKQEEDVNVRKRPRMDIETNDTFSDEAVPESSKISQENEIGKKRELKEDSLWSAKEISNNDKLQDDSEMLPKKLLLTEFRSLVIKNSTSRNPSGINDDYGQLKNFKKFKKVTYPGAGKLPHIIGGSDLIAHHARKNTELEEWLRQEMEVQNQHAKEESLADDLFRYNPYLKRRR
median enrichment of GFP at the mCherry dot over the rest of the nucleus: 7 fold
